Test results published in article PMC3618588.

Tests used:
[1] = molecular target: His6-JAK2 JH1 (836-1132), phosphorylated (JAK2^pY1007/pY1008) (mouse) (UniProt Q62120)
[2] = molecular target: His6-JAK2 JH1 (836-1132), phosphorylated (JAK2^pY1007/pY1008) (mouse) (UniProt Q62120); remark: listed apart in the source

Sequence of UniProt Q62120 (Q62120 836-1132): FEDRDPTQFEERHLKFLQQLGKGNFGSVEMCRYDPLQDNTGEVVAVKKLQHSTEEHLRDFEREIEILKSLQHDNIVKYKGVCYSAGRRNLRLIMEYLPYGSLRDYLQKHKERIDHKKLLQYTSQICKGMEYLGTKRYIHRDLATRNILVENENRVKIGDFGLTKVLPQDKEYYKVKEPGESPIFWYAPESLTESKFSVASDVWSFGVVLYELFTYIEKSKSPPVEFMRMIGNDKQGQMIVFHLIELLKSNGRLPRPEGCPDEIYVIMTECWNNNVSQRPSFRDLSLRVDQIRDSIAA

| IC50^mutant/IC50^WT, inhibition of JAK2 JH1 kinase activity [1] | IC50 of inhibition of JAK2 kinase activity by the isolated peptide [2] | Substance |
| --- | --- | --- |
| 2 ratio to WT | – | SOCS3 S29A / elonginBC complex (from UniProt O35718 22-225; Q15370 1-118; Q15369 1-112) |
| 23 ratio to WT | – | SOCS3 E30A / elonginBC complex (from UniProt O35718 22-225; Q15370 1-118; Q15369 1-112) |
| 0.1 ratio to WT | – | SOCS3 L22F / elonginBC complex (from UniProt O35718 22-225; Q15370 1-118; Q15369 1-112) |
| 6 ratio to WT | – | SOCS3 A50K / elonginBC complex (from UniProt O35718 22-225; Q15370 1-118; Q15369 1-112) |
| 1.4 ratio to WT | – | SOCS3 R77A / elonginBC complex (from UniProt O35718 22-225; Q15370 1-118; Q15369 1-112) |
| 1 ratio to WT | – | SOCS3^22-225 / elonginBC complex (wild type) (from UniProt O35718;Q15370;Q15369) |
| 1 ratio to WT | – | SOCS3 S26A / elonginBC complex (from UniProt O35718 22-225; Q15370 1-118; Q15369 1-112) |

The next lines start with the substance.

| Substance | IC50^mutant/IC50^WT, inhibition of JAK2 JH1 kinase activity [1] | IC50 of inhibition of JAK2 kinase activity by the isolated peptide [2] |
| --- | --- | --- |
| SOCS3 K28A / elonginBC complex (from UniProt O35718 22-225; Q15370 1-118; Q15369 1-112) | 2.8 ratio to WT | – |
| SOCS3 A50E / elonginBC complex (from UniProt O35718 22-225; Q15370 1-118; Q15369 1-112) | 1.1 ratio to WT | – |
| SOCS3 T24A / elonginBC complex (from UniProt O35718 22-225; Q15370 1-118; Q15369 1-112) | 3.3 ratio to WT | – |
| SOCS3 S27A / elonginBC complex (from UniProt O35718 22-225; Q15370 1-118; Q15369 1-112) | 2.5 ratio to WT | – |
| SOCS3 Y31A / elonginBC complex (from UniProt O35718 22-225; Q15370 1-118; Q15369 1-112) | 6 ratio to WT | – |
| SOCS3 L22A / elonginBC complex (from UniProt O35718 22-225; Q15370 1-118; Q15369 1-112) | 1.2 ratio to WT | – |
| SOCS3 K23A / elonginBC complex (from UniProt O35718 22-225; Q15370 1-118; Q15369 1-112) | 1.4 ratio to WT | – |
| SOCS3 Y47F / elonginBC complex (from UniProt O35718 22-225; Q15370 1-118; Q15369 1-112) | 80 ratio to WT | – |
| isolated KIR peptide from SOCS1 | – | 100 µM |
| SOCS3 T52A / elonginBC complex (from UniProt O35718 22-225; Q15370 1-118; Q15369 1-112) | 10 ratio to WT | – |
